From IntAct's records for PubMed 32101751

B1: Ubiquitin carboxyl-terminal hydrolase 15 (Homo sapiens), Q9Y4E8 (parent)
chain: MAEGGAADLDTQRSDIATLLKTSLRKGDTWYLVDSRWFKQWKKYVGFDSWDKYQMGDQNVYPGPIDNSGLLKDGDAQSLKEHLIDELDYILLPTEGWNKLVSWYTLMEGQEPIARKVVEQGMFVKHCKVEVYLTELKLCENGNMNNVVTRRFSKADTIDTIEKEIRKIFSIPDEKETRLWNKYMSNTFEPLNKPDSTIQDAGLYQGQVLVIEQKNEDGTWPRGPSTPKSPGASNFSTLPKISPSSLSNNYNNMNNRNVKNSNYCLPSYTAYKNYDYSEPGRNNEQPGLCGLSNLGNTCFMNSAIQCLSNTPPLTEYFLNDKYQEELNFDNPLGMRGEIAKSYAELIKQMWSGKFSYVTPRAFKTQVGRFAPQFSGYQQQDCQELLAFLLDGLHEDLNRIRKKPYIQLKDADGRPDKVVAEEAWENHLKRNDSIIVDIFHGLFKSTLVCPECAKISVTFDPFCYLTLPLPMKKERTLEVYLVRMDPLTKPMQYKVVVPKIGNILDLCTALSALSGIPADKMIVTDIYNHRFHRIFAMDENLSSIMERDDIYVFEININRTEDTEHVIIPVCLREKFRHSSYTHHTGSSLFGQPFLMAVPRNNTEDKLYNLLLLRMCRYVKISTETEETEGSLHCCKDQNINGNGPNGIHEEGSPSEMETDEPDDESSQDQELPSENENSQSEDSVGGDNDSENGLCTEDTCKGQLTGHKKRLFTFQFNNLGNTDINYIKDDTRHIRFDDRQLRLDERSFLALDWDPDLKKRYFDENAAEDFEKHESVEYKPPKKPFVKLKDCIELFTTKEKLGAEDPWYCPNCKEHQQATKKLDLWSLPPVLVVHLKRFSYSRYMRDKLDTLVDFPINDLDMSEFLINPNAGPCRYNLIAVSNHYGGMGGGHYTAFAKNKDDGKWYYFDDSSVSTASEDQIVSKAAYVLFYQRQDTFSGTGFFPLDRETKGASAATGIPLESDEDSNDNDNDIENENCMHTN
partner: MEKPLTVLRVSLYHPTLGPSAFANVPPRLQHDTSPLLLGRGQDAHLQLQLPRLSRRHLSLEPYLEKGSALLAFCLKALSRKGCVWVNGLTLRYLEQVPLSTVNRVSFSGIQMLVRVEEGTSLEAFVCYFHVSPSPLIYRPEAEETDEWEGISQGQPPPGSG

Variants of: B1
Details: with tifab_human TIFAB

Row | effect of a mutation on the interaction | Variant
1 | decreasing interaction strength | C298A
